Data on 8 sequences can be found in the supplement of paper PMC10065799, “High-throughput profiling of sequence recognition by tyrosine kinases and SH2 domains using bacterial peptide display” (eLife, 2023).

One series concerns the target c-Src SH2. Put plainly: SH2 binding enrichment of the phosphorylated peptide, bacterial display (enrichment ratio); higher = better substrate or ligand; peptides without Tyr show the background.
Another series addresses SHP2-C SH2. The series is described as above.
A further series deals with Grb2 SH2 (UniProt P62993). Described as above.
Sequence of Grb2 SH2 (P62993 whole entry, looked up): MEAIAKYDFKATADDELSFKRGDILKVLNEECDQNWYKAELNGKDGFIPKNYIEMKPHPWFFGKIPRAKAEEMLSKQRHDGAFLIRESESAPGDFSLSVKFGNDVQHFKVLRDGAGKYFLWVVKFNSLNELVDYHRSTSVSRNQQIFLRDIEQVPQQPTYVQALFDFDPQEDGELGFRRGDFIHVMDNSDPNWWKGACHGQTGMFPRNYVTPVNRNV
A further series concerns the target EPHB1 (UniProt P54762). The series can be described thus: phosphorylation enrichment, bacterial display (enrichment ratio); higher = better substrate or ligand; peptides without Tyr show the background.
The next series concerns Fer (mouse). The series is described as above.
The target in another series is Jak2 (UniProt O60674). The description is as above.
Sequence of Jak2 (O60674 whole entry, looked up): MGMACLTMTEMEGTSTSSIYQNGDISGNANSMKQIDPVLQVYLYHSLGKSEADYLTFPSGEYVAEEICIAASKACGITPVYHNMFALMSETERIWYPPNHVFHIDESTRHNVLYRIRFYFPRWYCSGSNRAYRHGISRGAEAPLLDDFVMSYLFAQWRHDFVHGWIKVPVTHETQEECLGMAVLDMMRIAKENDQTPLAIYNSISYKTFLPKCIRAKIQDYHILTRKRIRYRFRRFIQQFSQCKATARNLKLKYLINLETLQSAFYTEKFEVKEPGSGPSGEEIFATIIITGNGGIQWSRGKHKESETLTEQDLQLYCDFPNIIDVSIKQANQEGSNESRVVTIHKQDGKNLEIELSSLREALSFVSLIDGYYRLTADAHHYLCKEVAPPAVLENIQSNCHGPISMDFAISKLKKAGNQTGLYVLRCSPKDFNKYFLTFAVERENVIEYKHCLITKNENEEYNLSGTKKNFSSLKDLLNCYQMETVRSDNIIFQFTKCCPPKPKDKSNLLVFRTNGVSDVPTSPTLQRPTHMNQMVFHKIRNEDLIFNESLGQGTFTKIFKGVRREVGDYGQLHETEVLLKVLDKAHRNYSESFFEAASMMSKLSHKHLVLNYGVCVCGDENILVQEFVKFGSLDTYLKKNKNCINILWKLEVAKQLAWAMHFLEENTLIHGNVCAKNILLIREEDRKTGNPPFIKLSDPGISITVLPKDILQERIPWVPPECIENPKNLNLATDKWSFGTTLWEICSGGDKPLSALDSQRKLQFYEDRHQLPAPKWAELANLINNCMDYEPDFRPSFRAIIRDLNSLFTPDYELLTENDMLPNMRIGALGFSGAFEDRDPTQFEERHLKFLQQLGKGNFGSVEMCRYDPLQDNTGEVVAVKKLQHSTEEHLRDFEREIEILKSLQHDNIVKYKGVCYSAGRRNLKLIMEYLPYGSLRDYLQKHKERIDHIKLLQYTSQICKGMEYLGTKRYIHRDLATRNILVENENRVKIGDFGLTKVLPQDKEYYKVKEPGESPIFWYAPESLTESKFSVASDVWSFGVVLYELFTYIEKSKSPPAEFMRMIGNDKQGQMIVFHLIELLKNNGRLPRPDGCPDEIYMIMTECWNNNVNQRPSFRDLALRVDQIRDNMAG
The next series addresses Fyn (UniProt P06241). The series is described as above.
In the next series the target is Fes (UniProt P07332). The series is described as above.
Sequence of Fes (P07332 whole entry, looked up): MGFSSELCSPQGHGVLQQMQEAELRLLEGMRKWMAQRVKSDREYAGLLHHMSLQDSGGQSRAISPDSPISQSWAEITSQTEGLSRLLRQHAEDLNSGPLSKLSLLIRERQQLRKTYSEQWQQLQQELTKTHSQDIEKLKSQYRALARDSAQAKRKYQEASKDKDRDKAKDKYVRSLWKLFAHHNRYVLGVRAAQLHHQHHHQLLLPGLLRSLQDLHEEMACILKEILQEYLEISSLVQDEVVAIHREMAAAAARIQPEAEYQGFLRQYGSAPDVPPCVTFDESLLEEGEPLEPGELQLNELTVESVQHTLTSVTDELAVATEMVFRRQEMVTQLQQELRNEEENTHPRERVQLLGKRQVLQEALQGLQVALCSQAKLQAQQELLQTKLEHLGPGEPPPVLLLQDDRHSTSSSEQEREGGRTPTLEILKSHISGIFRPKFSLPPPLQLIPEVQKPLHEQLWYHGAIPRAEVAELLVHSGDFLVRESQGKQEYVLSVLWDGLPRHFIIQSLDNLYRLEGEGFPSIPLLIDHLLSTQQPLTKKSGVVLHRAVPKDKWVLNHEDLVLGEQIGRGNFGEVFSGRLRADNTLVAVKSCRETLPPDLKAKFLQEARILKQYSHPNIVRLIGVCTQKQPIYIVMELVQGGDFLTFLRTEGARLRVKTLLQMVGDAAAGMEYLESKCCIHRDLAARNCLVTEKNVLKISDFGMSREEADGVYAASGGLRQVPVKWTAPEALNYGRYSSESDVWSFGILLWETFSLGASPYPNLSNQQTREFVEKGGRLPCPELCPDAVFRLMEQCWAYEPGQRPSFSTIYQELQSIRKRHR
In the next series the target is Hck (UniProt P08631). The series is described as above.
Sequence of Hck (P08631 whole entry, looked up): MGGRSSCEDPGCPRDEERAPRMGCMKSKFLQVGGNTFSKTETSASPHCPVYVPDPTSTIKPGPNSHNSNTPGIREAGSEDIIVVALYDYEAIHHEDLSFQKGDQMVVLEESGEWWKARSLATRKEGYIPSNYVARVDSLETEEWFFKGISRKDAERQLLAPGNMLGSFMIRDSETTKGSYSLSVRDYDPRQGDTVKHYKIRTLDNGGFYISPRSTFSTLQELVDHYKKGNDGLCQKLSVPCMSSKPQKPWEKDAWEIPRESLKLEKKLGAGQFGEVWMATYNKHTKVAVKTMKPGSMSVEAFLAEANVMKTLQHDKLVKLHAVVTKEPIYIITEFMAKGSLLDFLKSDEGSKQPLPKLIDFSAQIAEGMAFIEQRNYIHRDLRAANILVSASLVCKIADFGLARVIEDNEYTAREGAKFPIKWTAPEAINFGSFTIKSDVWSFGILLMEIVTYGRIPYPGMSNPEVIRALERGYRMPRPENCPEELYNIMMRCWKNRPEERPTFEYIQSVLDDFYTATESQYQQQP
For another series, the target named is FGFR3 (UniProt P22607). Described as above.
A further series addresses FGFR1 (UniProt P11362). Described as above.
The target in the next series is EPHB2 (UniProt P29323). Described as above.
The subject of the next series is AncSZ. The description is as above.
A further series concerns c-Src. Described as above.
The next series addresses MERTK (UniProt Q12866). Described as above.
The subject of the next series is c-Abl (mouse). The description is as above.
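For SH2 binding enrichment of the phosphorylated peptide, bacterial display in this document: peptide library displayed on the E. coli surface as eCPX fusions, selected cells deep-sequenced, score is each peptide's frequency after selection divided by its frequency in the input.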
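For phosphorylation enrichment, bacterial display in this document: 11-residue human phosphosite peptides and single-mutation variants displayed on the E. coli surface, counted by deep sequencing, each peptide's frequency after selection divided by its frequency in the unselected input library; frequency after pTyr selection over input frequency; kinase dosed for 20-30% of maximal phosphorylation in three min.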

Sequence of EPHB1 (P54762 whole entry, looked up): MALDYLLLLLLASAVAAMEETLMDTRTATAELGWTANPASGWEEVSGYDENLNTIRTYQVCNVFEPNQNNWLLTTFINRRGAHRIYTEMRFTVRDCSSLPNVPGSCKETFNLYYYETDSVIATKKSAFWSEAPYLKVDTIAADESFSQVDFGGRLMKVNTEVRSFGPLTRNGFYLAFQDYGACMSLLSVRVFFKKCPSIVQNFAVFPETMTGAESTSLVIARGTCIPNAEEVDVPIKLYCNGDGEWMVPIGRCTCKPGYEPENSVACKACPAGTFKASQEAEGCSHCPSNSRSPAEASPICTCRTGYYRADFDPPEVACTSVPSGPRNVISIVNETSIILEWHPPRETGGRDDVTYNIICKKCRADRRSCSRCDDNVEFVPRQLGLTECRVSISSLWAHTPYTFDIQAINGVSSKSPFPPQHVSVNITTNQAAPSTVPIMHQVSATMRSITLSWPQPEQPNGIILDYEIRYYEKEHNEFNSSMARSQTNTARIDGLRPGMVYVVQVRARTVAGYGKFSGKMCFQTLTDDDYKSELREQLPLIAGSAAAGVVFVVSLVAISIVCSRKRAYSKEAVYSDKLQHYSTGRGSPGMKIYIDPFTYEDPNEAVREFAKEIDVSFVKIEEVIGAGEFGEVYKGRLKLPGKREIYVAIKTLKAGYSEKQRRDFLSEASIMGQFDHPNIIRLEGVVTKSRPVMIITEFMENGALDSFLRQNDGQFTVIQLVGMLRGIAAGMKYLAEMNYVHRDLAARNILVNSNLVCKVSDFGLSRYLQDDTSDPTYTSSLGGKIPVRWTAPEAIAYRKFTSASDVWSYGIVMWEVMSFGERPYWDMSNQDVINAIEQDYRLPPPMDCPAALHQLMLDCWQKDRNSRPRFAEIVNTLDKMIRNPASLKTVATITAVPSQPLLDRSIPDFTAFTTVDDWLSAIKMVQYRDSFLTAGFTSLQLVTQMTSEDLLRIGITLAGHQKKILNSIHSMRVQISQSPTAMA
Sequence of Fyn (P06241 whole entry, looked up): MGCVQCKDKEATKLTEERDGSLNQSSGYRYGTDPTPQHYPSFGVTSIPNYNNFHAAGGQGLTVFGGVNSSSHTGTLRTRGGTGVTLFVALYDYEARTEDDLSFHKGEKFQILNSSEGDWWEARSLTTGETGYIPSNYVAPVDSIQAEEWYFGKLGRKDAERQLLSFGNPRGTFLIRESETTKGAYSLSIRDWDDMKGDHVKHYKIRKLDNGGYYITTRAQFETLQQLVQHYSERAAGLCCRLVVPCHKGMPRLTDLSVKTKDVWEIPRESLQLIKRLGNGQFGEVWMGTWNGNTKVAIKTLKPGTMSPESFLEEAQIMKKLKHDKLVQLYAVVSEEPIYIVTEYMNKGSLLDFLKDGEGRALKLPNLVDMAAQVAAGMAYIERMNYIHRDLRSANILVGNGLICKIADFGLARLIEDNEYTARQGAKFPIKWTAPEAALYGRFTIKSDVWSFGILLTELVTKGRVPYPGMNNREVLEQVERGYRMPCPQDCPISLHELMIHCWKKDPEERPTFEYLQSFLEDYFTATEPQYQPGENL
Sequence of FGFR1 (P11362 whole entry, looked up): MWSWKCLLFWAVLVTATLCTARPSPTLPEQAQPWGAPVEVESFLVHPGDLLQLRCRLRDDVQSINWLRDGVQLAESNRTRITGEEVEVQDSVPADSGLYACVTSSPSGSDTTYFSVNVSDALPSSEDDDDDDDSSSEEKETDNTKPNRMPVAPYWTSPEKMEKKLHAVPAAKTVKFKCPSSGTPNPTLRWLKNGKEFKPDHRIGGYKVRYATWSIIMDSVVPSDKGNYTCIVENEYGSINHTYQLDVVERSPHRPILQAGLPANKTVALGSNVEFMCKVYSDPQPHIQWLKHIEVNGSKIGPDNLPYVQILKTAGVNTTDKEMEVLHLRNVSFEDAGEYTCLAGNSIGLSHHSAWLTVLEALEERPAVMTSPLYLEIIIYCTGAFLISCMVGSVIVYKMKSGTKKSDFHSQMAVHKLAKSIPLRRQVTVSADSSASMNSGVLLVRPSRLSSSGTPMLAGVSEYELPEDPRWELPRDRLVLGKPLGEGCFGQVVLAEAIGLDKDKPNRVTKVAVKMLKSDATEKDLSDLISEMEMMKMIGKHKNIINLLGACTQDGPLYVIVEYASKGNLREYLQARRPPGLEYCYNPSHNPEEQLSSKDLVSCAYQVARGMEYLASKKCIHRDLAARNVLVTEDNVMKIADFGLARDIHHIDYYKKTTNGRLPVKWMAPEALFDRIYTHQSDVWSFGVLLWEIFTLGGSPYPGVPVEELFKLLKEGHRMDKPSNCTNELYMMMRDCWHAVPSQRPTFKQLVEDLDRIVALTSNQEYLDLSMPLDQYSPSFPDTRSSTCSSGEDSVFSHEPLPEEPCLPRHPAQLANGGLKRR

PRQRRYVYYYS [PTEN_Y174_S170R]: the SH2 binding enrichment in the series with c-Src SH2 was 0.413; with SHP2-C SH2, 0.839; with Grb2 SH2 it was 0.909. In addition, the phosphorylation enrichment in the series with EPHB1 worked out at 0.656; in the series on Fer (mouse), 0.904; in the series with Jak2, 0.979; in the series with Fyn, 0.882; in the series with Fes, 0.683; with Hck it was 0.911. Further, the phosphorylation enrichment with FGFR3 came to 0.929; with FGFR1, 0.753; with EPHB2 it was 1.02; with AncSZ, 1.05; in the series with c-Src, 0.728; with MERTK it was 0.877. Besides, the phosphorylation enrichment in the series with c-Abl (mouse) came out at 0.769.
As for PSAELYSYALP [PDGFRB_Y716_N718Y], the SH2 binding enrichment came out at 3.46 with c-Src SH2, 0.641 with SHP2-C SH2 and 0.966 with Grb2 SH2. Further, the phosphorylation enrichment with EPHB1 came to 18; in the series with Fer (mouse), 25.8; with Jak2, 0.947; in the series with Fyn, 6.1; with Fes it was 1.92; with Hck it was 8.81. Besides, the phosphorylation enrichment with FGFR3 was 10; with FGFR1, 10.6; with EPHB2, 21.2; with AncSZ, 3.71; in the series with c-Src, 5.38; with MERTK, 16.8. Also, the phosphorylation enrichment in the series on c-Abl (mouse) was determined as 1.55.
As to PSDPSYEDMRE [BMPR1A_Y467], the SH2 binding enrichment with c-Src SH2 was found to be 1.12; in the series with SHP2-C SH2, 0.324; with Grb2 SH2, 0.832. In addition, the phosphorylation enrichment was 0.901 with EPHB1; 1.26 with Fer (mouse); 1.45 with Jak2; 0.848 in the series with Fyn; 1.59 with Fes; 1.28 with Hck. The phosphorylation enrichment was 1.27 in the series with FGFR3; 0.758 with FGFR1; 0.495 in the series with EPHB2; 2.49 with AncSZ; 0.534 in the series with c-Src; 0.504 with MERTK. Besides, in the series on c-Abl (mouse), the phosphorylation enrichment worked out at 0.831.
As to PSPMPYACCQM [FOXL2_Y215_S217C], the SH2 binding enrichment with c-Src SH2 turned out to be 1.32; with SHP2-C SH2, 0.426; in the series with Grb2 SH2, 0.888. The phosphorylation enrichment with EPHB1 is 0.663; in the series with Fer (mouse) it was 0.831; with Jak2, 0.516; with Fyn, 0.71; in the series with Fes it was 1.3; in the series with Hck it was 0.427. Moreover, the phosphorylation enrichment with FGFR3 stood at 0.812; with FGFR1, 0.494; with EPHB2 it was 0.437; in the series with AncSZ it was 0.703; in the series with c-Src, 1.02; in the series with MERTK it was 0.615. Further, the phosphorylation enrichment in the series with c-Abl (mouse) was 0.49.
On to PSSNLYYRWLT [CNGA3_Y168], for which the SH2 binding enrichment with c-Src SH2 was determined as 0.816; with SHP2-C SH2, 1.59; in the series with Grb2 SH2 it was 1.32. For the same sequence, the phosphorylation enrichment with EPHB1 was 3.17; in the series with Fer (mouse) it was 6.19; with Jak2 it was 7.82; in the series with Fyn it was 3.84; with Fes it was 1.4; with Hck, 8.15. Besides, the phosphorylation enrichment in the series with FGFR3 was determined as 9.96; with FGFR1, 13.5; in the series with EPHB2, 4.17; in the series on AncSZ, 1.89; in the series with c-Src, 4.28; in the series with MERTK, 12.4. The phosphorylation enrichment with c-Abl (mouse) was 7.69.
Regarding PSTYRYERGSR [INPPL1_Y663_P659S], the SH2 binding enrichment with c-Src SH2 worked out at 0.495; in the series with SHP2-C SH2 it was 0.492; with Grb2 SH2, 0.814. The phosphorylation enrichment with EPHB1 is 0.663; in the series on Fer (mouse) it was 0.474; with Jak2, 0.475; with Fyn, 0.721; with Fes, 0.59; with Hck, 0.661. Further, the phosphorylation enrichment was 0.588 with FGFR3; 0.641 with FGFR1; 0.511 with EPHB2; 0.718 with AncSZ; 0.546 with c-Src; 0.561 with MERTK. Also, the phosphorylation enrichment in the series on c-Abl (mouse) came to 0.446.
PVFEVYPLLNC [GATA1_Y78_Q76E]: the SH2 binding enrichment turned out to be 0.551 with c-Src SH2, 0.73 in the series with SHP2-C SH2 and 0.945 in the series with Grb2 SH2. Also, the phosphorylation enrichment in the series with EPHB1 turned out to be 0.742; in the series on Fer (mouse) it was 0.533; in the series with Jak2, 1.48; with Fyn, 0.418; in the series with Fes, 1.86; in the series with Hck, 0.597. Besides, the phosphorylation enrichment in the series with FGFR3 came out at 1.9; with FGFR1, 2.54; with EPHB2, 0.756; with AncSZ, 1.64; in the series with c-Src it was 0.758; in the series with MERTK, 0.559. Also, the phosphorylation enrichment in the series on c-Abl (mouse) turned out to be 1.03.
Regarding PVGVLYEVKVY [PTS_Y128_K129E], the SH2 binding enrichment in the series with c-Src SH2 came out at 0.537; in the series with SHP2-C SH2, 0.725; with Grb2 SH2, 0.966. In addition, the phosphorylation enrichment is 0.945 with EPHB1; 0.56 in the series with Fer (mouse); 1.78 with Jak2; 0.775 with Fyn; 1.67 with Fes; 0.728 in the series with Hck. Also, the phosphorylation enrichment in the series with FGFR3 came out at 1.02; with FGFR1, 0.783; with EPHB2, 0.552; in the series on AncSZ it was 1.64; in the series on c-Src, 0.585; with MERTK, 0.55. Besides, the phosphorylation enrichment with c-Abl (mouse) was 2.37.
